Literature values as cited in article PMC3970081.

Target: KIF5B tail (Rattus norvegicus) (UniProt Q2PQA9)
Assay: SPR

Sequence of KIF5B tail (Rattus norvegicus) (Q2PQA9 758-963): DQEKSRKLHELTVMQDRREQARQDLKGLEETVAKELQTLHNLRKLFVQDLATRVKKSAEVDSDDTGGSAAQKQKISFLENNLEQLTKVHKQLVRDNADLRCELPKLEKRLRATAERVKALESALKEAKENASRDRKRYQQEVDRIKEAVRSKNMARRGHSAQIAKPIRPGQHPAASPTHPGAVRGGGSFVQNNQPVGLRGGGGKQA
Sequence of Kv3.1 T1 domain (P25122 1-129): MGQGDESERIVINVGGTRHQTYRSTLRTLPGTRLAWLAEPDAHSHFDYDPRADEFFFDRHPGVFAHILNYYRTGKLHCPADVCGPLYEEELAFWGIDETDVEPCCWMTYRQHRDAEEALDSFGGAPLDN

Substance: Kv3.1 T1 domain (from UniProt P25122)
- Kd: 0.06 µM
